In PMC6834915:

Target: CdiI^Kp342 immunity protein (untagged) (Klebsiella pneumoniae 342)
Assay: crystal structure

CdiI^Kp342 immunity protein (untagged) (natural protein)
stoichiometry N: 2
